B1: Histone chaperone RTT106 (Saccharomyces cerevisiae), P40161 (parent)
chain: MSKLFLDELPESLSRKIGTVVRVLPSSLEIFEELYKYALNENSNDRSGRHKKPRIDVSSDLLKTDEISETNTIFKLEGVSVLSPLRKKLDLVFYLSNVDGSPVITLLKGNDRELSIYQLNKNIKMASFLPVPEKPNLIYLFMTYTSCEDNKFSEPVVMTLNKENTLNQFKNLGLLDSNVTDFEKCVEYIRKQAILTGFKISNPFVNSTLVDTDAEKINSFHLQCHRGTKEGTLYFLPDHIIFGFKKPILLFDASDIESITYSSITRLTFNASLVTKDGEKYEFSMIDQTEYAKIDDYVKRKQMKDKSMSEELKAKSKSKGQATDGTADQPSILQEATRQMQDEKKAGVFSDDDEENDQNFEAESDLSDGSGQESSDGAEDGEEAEEDDEEDDEEEDKKGQSALNRDNSFASINGQPEQELQYKEFKEPLELEDIPIEIDNDDDEDDEDGSGVEYD

Variants of: B1
Conditions: with h3_yeast HHT1, P61830

Effect of a mutation on the interaction, disrupting interaction strength:
S80E
T265E
R86A
